Measured values taken from US7413903B2, “Methods of regulating differentiation in stem cells” (ES Cell International PTE Ltd., priority 2002, dated 2008).

Test system: hES cells
Test: GCTM-2 quantification (alkaline phosphatase-coupled secondary antibody, OD 405 nm)
Type: cell-based, human
Text: hES-3 cells plated with MEF, were fixed in ethanol and immunostained with GCTM-2 and then with an alkaline phosphatase-coupled secondary antibody (Dako). The activity of alkaline phosphatase was detected by adding a solution of 4-nitrophenyl phosphate (Roche, Mannheim, Germany), followed by reading the optical density (OD) at 405 nm. In order to validate the technique as a relevant indicator of the proportion of GCTM-2 positive cells, standard curves were done with the teratocarcinoma cell line GCT27C4, known to express GCTM-2.
Cells were fixed in 100% ethanol and immunostained with GCTM-2 followed by alkaline phosphatase-coupled secondary antibodies (Dako). Alkaline phosphatase activity was detected by adding a solution of 4-nitrophenyl phosphate (Roche), and the concentration of the reaction product was determined by reading the optical density (OD) at 405 nm. In order to validate the technique as an accurate indicator of the proportion of GCTM-2 positive cells, standard curves were carried out with the embryonal carcinoma cell line GCT27C4, known to express GCTM-2 ^20.

B1: PDGF-BB: Human platelet-derived growth factor isoform BB (protein, UniProt P01127 82-190, looked up)
Platelet-derived growth …: SLGSLTIAEPAMIAECKTRTEVFEISRRLIDRTNANFLVWPPCVEVQRCSGCCNNRNVQCRPTQVQLRPVQVRKIEIVRKKPIFKKATVTLEDHLACKCETVAAARPVT
For B1, the “GCTM2 levels, PDGF isoform added with S1P” value (Example 1, isoform added with S1P) was 182.0±26.0 % of control and the “GCTM2 expression, PDGF isoform with S1P” value (Example 2, 2 weeks, isoform 20 ng/ml together with S1P) was 294.3±77.3 % of control.
